# Results published in the nanobody polyreactivity screen of Harvey et al. (2022).
# Experiment: yeast display, Sf9 membrane polyspecificity reagent, FACS + sequencing; frameworks hold sequencing errors
# Procedure, shortened: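 A nanobody's polyreactivity label depends on the gate it was sorted from. Yeast display cells were stained with 10% biotinylated, detergent-solubilized Sf9 membrane reagent for 1 hour at 4 °C, enriched on streptavidin microbeads and sorted by FACS. The low and high (top ~1%) gates were set on anti-HA fluorescence for expression and streptavidin fluorescence for reagent binding.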
row,Sequence,polyreactivity (PSR sort gate)
1,QVQLVESGGGLVQAGGSLRLSCAASGSIFIRNAMGWYRQAPGKERELVAAITSGGNTYYADSVKGRFTISRDNAKNTVYLQMNSLKPEDTAVYYCNAGRYYRHDYWGQGTQVTVSS,low polyreactivity
2,QVQLVESGGGLVQAGGSLRLSCAASGRSFCTYAMGSYRQAPGKERELVAAITSGGSTNYADSVKGRFTISRDNAKNTVYLQMNSLKPEDTAVYYCAAVEYLRESDYWGQCTQVTVSS,low polyreactivity
3,QVQLVESGGGLVQAGGSIRLSCAASGYSFNGYAMGWYRQAPGKEREFVAAISWSGGSTYYADSVKGRFTISRDNAKNTVYLQMNSLKPEDTAVYYCAKRRGGGYDYWGQGTQVTVSS,low polyreactivity
4,QVQLVESGGGLVQAGGSLRLSCAASGSIFGRYGMGWYRQAPGKERELVAAITSGTRTNYADSVKGRFTISRDNAKNTVYLQLNSLKPEDTAVYYCNALRLRGNYEYGYWGLGTQVTVSS,low polyreactivity
5,QVQLVESGGGLVQAGGSLRLSCAASESIFVRNAMGWYRQAPGKERELVASITYSGSRTYYADSVKGRFTISRDNAKNTVYLQMNRLKPEDTAVYYCAKVRVLVDKWSTFYEYYYWVQGTQVTVSS,low polyreactivity
6,QVQLQESGGGMVQAGGSQRLSCAASGYISWADYMGWYRKATGKERELVAGIGYGSTTYYADSVKGLFTISRDNANNTAYLQMNSLKPEDTAVYYCAVGWYRDTAYKYWGQGTQVTVSS,low polyreactivity
7,QVQLVESGGGLVQAGGSLRLSCAASGIIFTDYAMGWDRQAPGKERELVAAISSGGGSTYYADSVKGRFTISRDNAKNTVYIQLNSQKPEDTAVYYCAAEGYLISGACDYLYDYYWGQGTQVTVSS,high polyreactivity
8,QVQLVESGGGLVQAGGSLRLSCAASGSTLVGYDMGWYRQAHGKEMELVADITSTGSTNYADSVKGSFTISRDNAKNTVYLQMNSLKPEDTAVYYCAADLYFYIYSYNYWGQGTQVTVSS,low polyreactivity
9,QVQLVESGGGLVQAGGSLRLSCAASGFIIKFCAMGLYRQAPGKERELVATITFSSGTTYYADSVKGRFTISRDNAKYTVYLQMNSLKPEDTAVYYCAASTLPAWPYDGPAGPRYDYWGQGTQVTVSS,low polyreactivity
10,HVQLVESGGGLVQAGGSLRLSCAASGFTFANNAMGWYRQAPRKERELVAAISRSGGSTYYADSVKGRFTISRDNAKNTVYLQMNSLKPEDTAVYYCAVYNRPYKEYGYNYWGQGTQVTVSS,high polyreactivity
11,QVQLVESGGRLVQAGGSLRLSCAASGRIFVRYAMGWYRQAPGKERELVAAISTRGGSTYYADSVKGRFTISRDNAKNTVYLQMNSLNPEDTAVYYCAAGPRPRPTDYWGQGTQVTVSS,high polyreactivity
12,QVQLVESGGGLVQAGGSLRLSCAASGSIFGRNAMGWYRQAPGKERELVAAISSRSDRTYYADSVKGRFTISRDNAKNTVYLQMNSLKPEDTAVYYCAARYGSSQNGYKSDYWGQGTQVTLSS,high polyreactivity
13,QVQLVESGGGLVQAGGSLRLSCAASGITLGYYAMGWYRQAPGKERELVAAISYRGGNTYYADSVKGRFTISRDNAMKTVYLQMNSLKPEDSAVYYCAAYDEYYGYDYWGQGTQVTVSS,low polyreactivity
14,QFQLVESGGGLVQAGGSLRLSCAASGIIFVSYAMGGYIQAPGKETEFVAGINWNGGSTYYADSVKGRFTISRDNAKNTVYLQMNSLKPEDTAVYYCNAENYRVRQRSSVKYDYWGHGTQVTVSS,low polyreactivity
15,QVKLKESVGGLVQAGGSLRLSCAASGSISATGHMGWYRQAPGEERELVAAINFGSNTYYADSVKGLFTISRDNAINTVYLQKSGLKPEDTAVYYWAVDGWYVGPYYYWGQGTQVTVSS,high polyreactivity
16,QVQLVESGGGLVQAGGSLRLSCAASGSIFVLYTIGWYRQAPGKERELVGAISYSGGSTNYADSVKGRFTISRDNAKNTVYLQMNSLKPEDTSVYYCADRASKGHKYWGQGTQVTVSS,high polyreactivity
17,QVQLVESGGGLVQAGGSLRLSCAASGITFLPTAMGWYRQAPGKERELVAAITWRGGSTYYADAVKGRFTISRDHAKNTVYLQMNSLKREDTAVYYCGATGWQYVYYNYLWLKGGYWGQGTQVSVSS,high polyreactivity
18,QVHLVESGGGLVQAGGSLRLSCASSGFTFRANAMGWYRPAPGKERELVAVITGSGRTYYAHSVKGRFTISRDNAKNSVYLKMNSLKPEDTAVYYCAARAAYRVSSTGYDSWGQGSQVTVSS,high polyreactivity
19,QVQLVESAGGLVQAGGSLRLSCAASGMILWRYSMGWYRKAPGKEMEFVAAISYRAGSTYYADSVKGRFTISRDNAKNTVYLQMNSLKPEDTAVYYCAAGLKRFGSYPWLKSGMGYWGQGTQVTVSS,high polyreactivity
20,QVQLVESGGGLDQAGGSLRLSCAASGRIFPFNAMGWYRQAAGKERELVASIRSTGGNTYYADSVKGRFTISRDNAKNTVYLQMISLIPEDSAVYYWGQGTQVTVSS,low polyreactivity
21,QVQLVESGGGLVQAGGSLRLSCAASGFTFTRNAMGWYRQAPGKERELVAAISKRGGTTYYADSVKGRFTISRDNAKNTVYLQMNSLKPEDTAVYYCAKDGGITGGYWGQGTQVTVSS,high polyreactivity
22,QDQLVESGGGLVQAGGSLRLSCAASGIIFGAYAMGWYRQAPGKERELVAAISQSGGSTYYADSVKGRFTISRDNAKITVYLQMNSLKPEDTAVYYCNVDPDVILVTSYDYWGQGTQVTVSS,low polyreactivity

row,Sequence,polyreactivity (PSR sort gate)
1,QVQLVESGRGLVQAGGSLRLSCAASGRIFGINAMGGYRQAPGKERELVAPITSGVSTNYADSVKGRFTISRDNAKNTVYLQMNSLKPGDTAVYYCAARPRWYFFSYGRQDYGYWGQGTQVTVSS,low polyreactivity
2,QVHLVESGGGLVQARGSLRLSCAAYGRIFGRNAMGWYRQAPGKERELVAVITFSGGDTFYADSVKGRFTISRDNAKNTVYLQMNSLKPEDTAVYYCAKSQGFETYRNVSIFGYWGQGTQVTVSS,low polyreactivity
3,QVQLVESGGGLVQAGGSLRLSCAASGSTFPRYAMGWYRPAPGKERELVARISNSGASTYYADSVKGRFTISRDNAKNTVYLQMNSLKPEDTAVYYCNARRYSRPSGFKHYHYAESDYWGQGTQVTVSS,high polyreactivity
4,QVQLVESGGGLVQAGGSLRLSCAASGYIFSLYGMGWYRQAPGKERELVAAITGSGGGTYADSVKGRFTISRDNAQNTVYLQMKSLKPEDTAVYYCAAGGYRRRFWPIYDYWGQGTQVTVSS,low polyreactivity
5,QVQLVESGGGIVQAGRSLRLRCAASGSTFTPYGMGWYRQAPGKESELVAAITVSGGRTYYADSVKGRFTISRDNANNTVSLVMNSLKPEDTAVYYCAAVYLRADGDYDYWGQGTQVNVSS,low polyreactivity
6,QVQLVESGGCLVQAGGSLRLSCAASRRIFNYYAMGWYRQAPGKERELVAAINSGGSTYADSVKGRFTISRDNAKNTVYLQMNSLKPEDTAVYYCAKDGQLLSGRERPSGYDHWGQGTQVTVSS,low polyreactivity
7,QVQLVESGGGLVQAGGSLRLSCASSGSIFLSYTMGWYRKAPGKERELVAAISKRGGSSYYADSVKGRFTISRDNAKNTVYFQMNTLIPEDTAVYYFNADVRYRRRISVTNVYDYWGQGTQVTVSS,high polyreactivity
8,QVQLVESGGGLVQAGGSLRLSCAASGSTFSRNAMGWYRQAPGKERELVAAISWRGGRTYYADSVKGRFTISRDNAKNTVYLQMNSLKPEDTAVYYCAAEHKYRYDYWGQGTQVTVSS,low polyreactivity
9,QVQLVESGGGLVQAGGSRRLSCAASGLIFDKAMGWYRQAPGKQREFVAAITYSTGSTYYADSVKGRFTISRDNAKNTVYLQMNSLKPEDTAVYYCAKDGSGHGTERDYWGQGTQVTVSS,low polyreactivity
10,QVQLVESRGGLVQAGGSLGLSCAASGSTFGYYAMGWYRQAPGKERELVAGISTGGSTYYAYSVKGRFTISRDNAKNTVYFQINSLKPDDTAVYYCAATRYNRWPIKFDYWGQGTQVTVSS,high polyreactivity
11,QVQLVESGGGLVKAGGSLRLSCAASGRTFRAYAMGWYRQAPGKERELVAAITSGGSTKYADSVKGRFTISRDNAKNTVYLQMNSLKPEETAVYYCNARFDRVYQLKWWYSYDYWGQCTQVTVSS,high polyreactivity
12,QVQLVESGGGLVQAGGSLRLSCAASGFTFGWYAMGWYRQAPGKEREFVAAISQTGGSTYYADSVKGRFTISRDNAKNTVYLQMNSLKPEDTAVYYCAAPGKRRGVYYWGQGTQVTVSS,high polyreactivity
13,QVQLVESGGGLVQAGGSLRLSCAASGFTFNRNAMGWYRQAPGKERELVAAITKRGGSTFYADSVKGRFTISRDNAKNTVYLQMNSLKPEDTAVYYCAASVATYFPRHYDYWGQGTQVTVSS,high polyreactivity
14,QVQLVESGGGLVQAGGSLRLSCAASGSTFRGYAMGWYRQAPGKERELVAAITRSGGSTYYADSVKGRFTISRDNAKNTVYLQMNSLKPEDTAVYYCNDRAFPYYRRFDYWGQGTQVTVSS,high polyreactivity
15,QVQLVESGGGLVQAGGSLRLSCAASGSTFQWYAIGWYRQAPGKERELVATISYTGGSRTYYADSVKGRFTISRDNAKNTVYLQMNILKPEDTAVYYCAAESNQLFYFRRFDYWGQGTQVTVSS,low polyreactivity
16,QDQHVESGGGLVQAGGSLRLSCSASGRTFDYYAMGWYRQAPGKERELVAAINSGGNTYYADSVKGRFTISRDNAKNTVYLQMNSLKPEDTAVYYCAAYYRDKLSGYNYWGQGTQVTVSS,high polyreactivity
17,QVQLVESGGGLVQAGGSLRLSCAASGFISAYYAMGWYRQAPAKERELVAGINSNGGSTYYADSVKGRFTISRDNAKNTVYLQMNSLKPEDTAVYYCNKRYRHLYYKSVGSYDYWGQGTQVTVSS,high polyreactivity
18,QVQLVESGGGLVQAGGSLRLSCAASGFTFSPNAMGWDRQAPGKERELVATISWNGGRTHYADSVKGRFTISRDNANKTVYLQMNSLKPEDTAVYYCNVVRATGRYYYWGQGTQVTVSS,high polyreactivity
19,QVQLQESGCGLVQAGGSLRLSCAASGNIFEADIMGWYHQAQGKERELVASITDGGSTNYADSVKGRFTINRDNAKNNVYLQMNSLKPEDTAVYSCAAIAYPDIPTYFDYDSDYFYWGQGTQVTVSS,high polyreactivity
20,QVQLVESGGGLVQAGGSLRLSCAASGSIFFENDMGWYRQAPGKEREFVAAISLSSASTYYADSVKGRFTISRDNAKNTVYLQMNSLKPEDTAVYYCAADAIFGWPTFDYWGQGTQVTVSS,low polyreactivity
21,QVQLVESGGGLVQAGGSLRLSCAASGRIFTNNAMGWYREAPGKERELVAAISKRGGSTYYADSVKGRFTISRDNAKNTVYLQMNSLKPEDTAVYYCNAREYIHWRGALGLFGSWGQGTQVTVSS,high polyreactivity
